Assays:
[1] = target: human lysosomal α-L-fucosidase (FucA1) (human) (UniProt P04066); test: cryo-EM structure; single-particle cryo-EM, 200 kV Glacios, D2 symmetry imposed; unliganded FucA1 at 2 mg/mL, and FucA1 at 1.5 mg/mL with 1 mM deoxyfuconojirimycin in 60 mM phosphate citrate pH 4.5
[2] = target: human lysosomal α-L-fucosidase (FucA1) (human) (UniProt P04066); test: SEC-MALS; SEC-MALLS, Superdex S200 10/300, 20 mM HEPES pH 7.4, 200 mM NaCl, room temperature (20 ± 2°C), 100 μL injected at 0.8 mg/mL

stoichiometry N [1]: 4
stoichiometry N [2]: 4
Substance: human lysosomal α-L-fucosidase (FucA1) (from UniProt P04066 32-466) (enzyme)

Source: PMC9548408
